# Experimental data from US20200255528A1 (Five Prime, published 2020).
# T1: human B7-H4 on cells (human, UniProt Q7Z7D3 25-282)
# T1 construct: Full-length human B7-H4 on transfected HEK293T cells (also aAPCs) or endogenous on SK-BR-3 breast cancer cells; also called SK-BR-3 (endogenous human B7-H4)
# T1 sequence: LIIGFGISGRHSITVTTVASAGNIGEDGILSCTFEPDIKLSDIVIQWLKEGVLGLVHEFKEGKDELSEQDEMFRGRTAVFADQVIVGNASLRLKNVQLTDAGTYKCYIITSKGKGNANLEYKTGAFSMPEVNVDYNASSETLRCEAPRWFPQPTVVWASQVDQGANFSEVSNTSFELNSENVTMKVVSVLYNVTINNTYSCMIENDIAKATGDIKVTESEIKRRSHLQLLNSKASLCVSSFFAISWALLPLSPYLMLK
# T2: rat B7-H4 on cells (rat, UniProt Q501W4 25-257)
# T2 construct: Full-length, on transfected HEK293T cells
# T2 sequence: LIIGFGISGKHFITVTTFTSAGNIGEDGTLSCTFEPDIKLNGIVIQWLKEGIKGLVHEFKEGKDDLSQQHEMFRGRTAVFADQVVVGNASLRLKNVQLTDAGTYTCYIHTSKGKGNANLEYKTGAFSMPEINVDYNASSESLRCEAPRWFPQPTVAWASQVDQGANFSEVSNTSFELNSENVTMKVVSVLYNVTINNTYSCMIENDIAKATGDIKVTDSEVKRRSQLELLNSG
# T3: mouse B7-H4 on cells (mouse, UniProt Q7TSP5 25-257)
# T3 construct: Full-length, on transfected HEK293T cells
# T3 sequence: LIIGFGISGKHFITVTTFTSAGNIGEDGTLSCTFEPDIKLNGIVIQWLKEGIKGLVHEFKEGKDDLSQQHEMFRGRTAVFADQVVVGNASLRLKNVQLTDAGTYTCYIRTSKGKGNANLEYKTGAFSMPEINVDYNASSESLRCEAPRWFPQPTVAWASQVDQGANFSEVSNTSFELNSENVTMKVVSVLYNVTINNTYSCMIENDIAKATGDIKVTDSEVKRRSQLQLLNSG
# T4: cynomolgus monkey B7-H4 on cells (cynomolgus monkey, UniProt Q7Z7D3 25-282 (human entry))
# T4 construct: Full-length, on transfected HEK293T cells
# T4 chain: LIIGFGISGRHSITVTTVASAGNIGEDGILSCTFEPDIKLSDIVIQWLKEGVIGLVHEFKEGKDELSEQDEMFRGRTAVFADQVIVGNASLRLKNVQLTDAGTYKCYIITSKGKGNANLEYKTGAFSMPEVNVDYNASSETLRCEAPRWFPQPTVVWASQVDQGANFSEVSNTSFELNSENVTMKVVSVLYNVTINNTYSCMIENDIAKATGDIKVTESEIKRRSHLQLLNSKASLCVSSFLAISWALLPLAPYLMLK
# B1: antibody 15483 (antibody, human IgG1, kappa, V domains shown)
# VH: QVQLQESGPGLVKPSQTLSLTCTVSGGSISSGGYYWSWIRQHPGKGLEWIGNIYYSGSTYYNPSLKSRVTISVDTSKNQFSLKLSSVTAADTAVYYCARGLSTIDEAFDPWGQGTLVTVSS
# VL: not shown
# notes: human IgG1/kappa
# B2: antibody 20506 (antibody, V domains shown)
# VH: QLQLQESGPGLVKPSETLSLTCTASGGSISHGGYYWSWIRQHPGKGLEWIGNIYYSGSTYYNPSLKSRVTMSVDTSKNQFSLKLSSVTAADTAVYYCARESSTISADFDLWGRGTLVTVSS
# VL: DIQMTQSPSSVSASVGDRVTITCRASQGISRWLAWYQQKPGKAPKLLIYAASSLQSGVPSRFSGSGSGTDFTLTISSLQPEDFATYYCQQAHTFPYTFGGGTKVEIKR
# notes: human IgG1/kappa
# B3: antibody 15462 (antibody, human IgG1, kappa, V domains shown)
# VH: QLQLQESGPGLVKPSETLSLTCTVSGGSISSSSYYWGWIRQPPGKGLEWIGNIYYSGSTYYNPSLKSRVTISVDTSKNQFSLKLSSVTAADTAVYYCAREGSYTTVLNVWGQGTMVTVSS
# VL: EIVLTQSPGTLSLSPGERATLSCRASQSVSSSYLAWYQQKPGQAPRLLIYGASSRATGIPDRFSGSGSGTDFTLTISRLEPEDFAVYYCQQAASYPLTFGGGTKVEIKR
# notes: human IgG1/kappa
# Key:
# [1] = biological target: T5, recombinant human B7-H4-huIgG1 (human); experiment: BLI and SPR
# T5 construct: the entry begins with the N-terminal leader (MASLG...), no cleavage site is stated; also called B7-H4-hulgGl; B7-H4-extracellular domain (ECD)
# human B7-H4 on cells = biological target: T1, human B7-H4 on cells; experiment: flow cytometry titration on SK-BR-3 cells (endogenous human B7-H4), GEO MFI against antibody concentration
# Experimental: (§1) Following incubation, cells were pelleted, washed and incubated with a secondary labeling antibody and samples were acquired on a flow cytometer. Data was analyzed using the FlowJo software and MFI was plotted vs. antibody concentration. The EC50 cell binding potency was calculated using nonlinear regression curve fit (GraphPad Prism).
# rat B7-H4 on cells = biological target: T2, rat B7-H4 on cells; experiment: flow cytometry titration on HEK293T cells transfected with rat B7-H4 (293-ratB7-H4), GEO MFI against antibody concentration
# Experimental: as §1
# mouse B7-H4 on cells = biological target: T3, mouse B7-H4 on cells; experiment: flow cytometry titration on HEK293T cells transfected with mouse B7-H4 (293-mouseB7-H4), GEO MFI against antibody concentration
# Experimental: as §1
# [2] = biological target: T4, cynomolgus monkey B7-H4 on cells; experiment: flow cytometry titration on HEK293T cells transfected with cynomolgus monkey B7-H4 (293-cynoB7-H4), GEO MFI against antibody concentration
# Experimental: as §1
Binder,binding result [1],EC50 (read off the curve) (human B7-H4 on cells) [nM],binding result (rat B7-H4 on cells),EC50 (read off the curve) (mouse B7-H4 on cells) [nM],EC50 (read off the curve) [2] [nM]
B1,binds,,,,
B2,,~2,binds,~8,~5
B3,binds,,,,
